Measurements from the RNAGym collection of RNA variant scans (doi:10.7554/elife.80360).

B1: HDV Ribozyme (parent)
chain: GGCCGGCAUGGUCCCAGCCUCCUCGCUGGCGCCGGCUGGGCAACAUUCCGAGGGGACCGUCCCCUCGGUAAUGGCGAAUGGGACCCA

Variants of: B1
Assay: self-cleavage, relative activity (ratio to wild type); higher = more cleavage; co-transcriptional

| Variant | self-cleavage |
| --- | --- |
| GGCCCGCAUGGUCCCAGCCUCCUCGUUGGCGCCGGCUGGGCAACAUUCCGAGGGGACCGUCCCCUCGGUAAUGGCGAAUGGGACCCA | 0.489 |
| GGCCAGCAUGGUCCCAGCCUCCUCGCUGGCGCCGGCUGGGCAACAUUCCGAGGGGACCGUCCCCCCGGUAAUGGCGAAUGGGACCCA | 0.308 |
| GGCCCGCAUGGUCCCAGCCUCCUCGCUGGCGCCGGCUGGGCAACAUUCCGAGGGGACCGUUCCCUCGGUAAUGGCGAAUGGGACCCA | 0 |
| GGCCCGCAUGGUCCCAGCCUCCUCGCUGGCGCCGGCUGGGCAACAUUCCGAGGGGACCGUGCCCUCGGUAAUGGCGAAUGGGACCCA | 0.287 |
| GGCCCGCAUGGUCCCAGCCUCCUCGCUGGCGCCGGCUGGGCAACAUUCCGAGGGGAUCGUCCCCUCGGUAAUGGCGAAUGGGACCCA | 0.185 |
| GGCCCGCAUGGUCCCAGCCUCCUCGCUGGCGCCGGCUGGGCAACAUUUCGAGGGGACCGUCCCCUCGGUAAUGGCGAAUGGGACCCA | 0.308 |
| GGCCCGCAUGGUCCCAGCCUCCUCGCUGGCGCCGGCUGGGCAAAAUUCCGAGGGGACCGUCCCCUCGGUAAUGGCGAAUGGGACCCA | 0 |
| GGCCCGCCUGGUCCCAGCCUCCUCGCUGGCGCCGGCUGGGCAACAUUCCGAGGGGACCGUCCCCUCGGUAAUGGCGAAUGGGACCCA | 0 |
| GGCCAGCAUGGUCCCAGCCUCCUCGCUGGCGCCGGCUGGGCAACAUUCCGAGGGGACCGUCCCCUCGGUAAUGGCGAAGGGGACCCA | 0.0923 |
| GGCCCGCAUGGUCCCAGCCUCCUCGCUGGCGGCGGCUGGGCAACAUUCCGAGGGGACCGUCCCCUCGGUAAUGGCGAAUGGGACCCA | 0 |
| GGCCCGCAUGGUCCCAGCCUCCUCGCUGGCGUCGGCUGGGCAACAUUCCGAGGGGACCGUCCCCUCGGUAAUGGCGAAUGGGACCCA | 0.0573 |
| GGCCCGCAUGGUCCCAGCCUCCUCGCUGGUGCCGGCUGGGCAACAUUCCGAGGGGACCGUCCCCUCGGUAAUGGCGAAUGGGACCCA | 0.128 |
| GGCCCGCAUGGUCCCAGCCUCCUCGCUGGCGCCGGCUGGGCAACAUUCCGAGGGGACCGUCACCUCGGUAAUGGCGAAUGGGACCCA | 0.0665 |
| GGCCCGCAUGGUCCCAGCCUCCUCGCUGGCGCCGGCUGGGCAACAUUCCGAGGGGACCGUCUCCUCGGUAAUGGCGAAUGGGACCCA | 0.222 |
| GGCCCGCAUGGUCCCAGCCUCCUCGCUGGCGCCGGCUGGGCAACAUUCCGAGGGGACCGUCCCAUCGGUAAUGGCGAAUGGGACCCA | 0.178 |
| GGCCCGCAUGGUGCCAGCCUCCUCGCUGGCGCCGGCUGGGCAACAUUCCGAGGGGACCGUCCCCUCGGUAAUGGCGAAUGGGACCCA | 0.262 |

| Variant | self-cleavage |
| --- | --- |
| GGCCCGCAUGGUCCCAGCCUCCUCGCUGGCGCCGGCUGGGCAACAUUCGGAGGGGACCGUCCCCUCGGUAAUGGCGAAUGGGACCCA | 0.192 |
| GGCCCGCAUGGUCCCGGCCUCCUCGCUGGCGCCGGCUGGGCAACAUUCCGAGGGGACCGUCCCCUCGGUAAUGGCGAAUGGGACCCA | 0.145 |
| GGCCCGCAUGGUCCCUGCCUCCUCGCUGGCGCCGGCUGGGCAACAUUCCGAGGGGACCGUCCCCUCGGUAAUGGCGAAUGGGACCCA | 0.237 |
| GGCCCGCAUGGUCCCAGCCUCCUCGCUGGCGCCGGCUGGGCAACAUUCCGAGGGGACCGUCCCCUCGGUAAUGGCGAAUGGGUCCCA | 0 |
| GGCCCGCAUGGUCCCAGCCUCCUCGCUGGCGCCGGCUGGGCAACAUUCCGAGGGGACCGUCCCCUCGGUAAUGGCGAAUGGGACCCA | 0.213 |
| GGCCCGCAUGGUCCGAGCCUCCUCGCUGGCGCCGGCUGGGCAACAUUCCGAGGGGACCGUCCCCUCGGUAAUGGCGAAUGGGACCCA | 0.249 |
| GGCCCGCAUGGUCCCAGCCUCCUCGCUGGCGCCGGCUGGGCAUCAUUCCGAGGGGACCGUCCCCUCGGUAAUGGCGAAUGGGACCCA | 0.0489 |
| GGCCAGCAUGGUCCCAGCCUCCUCGCUGGCGCCGGCCGGGCAACAUUCCGAGGGGACCGUCCCCUCGGUAAUGGCGAAUGGGACCCA | 0.764 |
| GGCCAGCAUGGUCCCAGCCUCCUCGCUGGCGCCGGCUGGGCAACAUUCCGAGGGGACCGACCCCUCGGUAAUGGCGAAUGGGACCCA | 0.125 |
| GGCCAGCAUGGUCCCAGCCUCCUCGCUGGCGCCGGCUGGGCAACAUUCCGAGGGGACCGGCCCCUCGGUAAUGGCGAAUGGGACCCA | 0 |
| GGCCCGCAUGGUCCCAGCCUCCUCGCUGGCGCCGGCUGGGCAACAUUCCGAGGGGACCGUCCCCUCGGUAAUGGCGAUUGGGACCCA | 0.0755 |
| GGCCAGCAUGGUCCCAGCCUCCUCGCUGGCGCCGGCUGGGCAACAUACCGAGGGGACCGUCCCCUCGGUAAUGGCGAAUGGGACCCA | 0.208 |
| GGCCCGCAUGGUCCCAGCCUCCUCGCUGGCGCCGGCUGGGCAACAUUCCGAGGGGACUGUCCCCUCGGUAAUGGCGAAUGGGACCCA | 0.293 |
| GGCCCGCAUGGUCCCAGCCUCCUCGCUGGCGCCGGCUGGGCAACAUUCCGAGGGGACCGUCCCCUCGGUAAUGGCGAAUGGGACCCC | 0.268 |
| GGCCCGCAUGGUCCCAGCCUCCUCGCUGGCGCCGGCUGGGCAACAUUCCGAGGGGACCGUCCCCUCGGUAAUGGCGAAUGGGACCCU | 0.175 |
| GGCCCGCAUGGUCCCAGCCUCCUCGCUGGCGCCGGCUGGGCAACAUUCCGAGGGGCCCGUCCCCUCGGUAAUGGCGAAUGGGACCCA | 0 |
